The target of this series is Dlx5[Q178P] homeodomain (Homo sapiens, UniProt P56178 137-198, Q178P). The series can be described thus: CD thermal denaturation.
Sequence of Dlx5[Q178P] homeodomain (P56178 137-198 Q178P): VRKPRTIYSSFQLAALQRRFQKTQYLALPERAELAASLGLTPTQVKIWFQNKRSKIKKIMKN

B1: 14-bp palindromic TAAT duplex (dsDNA)
DNA 1: CGACTAATTAGTCG
DNA 2: CGACTAATTAGTCG
With B1, the binding result was “binds”.

Source of the values: PMC4826628.
